Experiment [1] has as its target T1, TGFβ RII AP (UniProt P37173 23-166). Kind of experiment: ligand blocking ELISA, TGFβ RII AP binding to coated TGFβ ligand 1 (competitor). How it is done: (§1) A serial dilution of purified antibodies was incubated with TGFβ RII AP for 1 h in TGFβ-coated plates. After wash, p-nitrophenyl phosphate substrate was added to the wells for color development. The values of absorbance at 405 nm were read on a microtiter plate reader (Molecular Devices Corp) for the quantification of TGFβ RII binding to TGFβ. IC50 of the antibodies was analyzed using GraphPad Prism.

Experiment [2] addresses T2, huTGFβ RIIFc (recombinant extracellular domain of human TGFβ RII fused to Fc) (human, UniProt P37173 23-166).
T2 construct: The Fc is not described; also called human TGFβ RIIFc; not shown: Fc part
As to the kind of experiment: SPR (Biacore), TGFβ RII-Fc extracellular domain immobilized at low density; Antibody A; KD. How it is done:
(§2) The association (kon) and dissociation (koff) rates were determined using BIAevaluation 2.1 software.

For a further experiment, the target named is human C1q (human, UniProt P02745 23-245; P02746 28-253; P02747 29-245). Kind of experiment: cell-based or functional assay.
Another experiment deals with T3, FcγR2a(H) (human, UniProt P12318 36-218).
T3 construct: also called human Fc-gamma receptor 2a, H form
T3 sequence (looked up): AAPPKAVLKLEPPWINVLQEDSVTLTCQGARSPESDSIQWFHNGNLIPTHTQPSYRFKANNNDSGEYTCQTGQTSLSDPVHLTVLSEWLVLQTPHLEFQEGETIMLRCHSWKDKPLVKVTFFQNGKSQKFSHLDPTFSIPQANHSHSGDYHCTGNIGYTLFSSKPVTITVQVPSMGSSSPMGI
Kind of experiment: solid phase binding assay (Meso Scale), receptor coated, antibody titrated. As to the method:
(§3) Receptor protein (50 ng/well) was added to the wells of a Meso Scale standard bare plate in PBS. […] The plates were washed three times in PBS/0.05% Tween-20. Stock solutions of all antibodies were prepared at 0.5 mg/mL in 1% MSD blocker A in PBS-Tween and serially diluted 1:3. The indicated antibodies were added to each reaction well. Recombinant protein and antibodies were incubated for 2 hours at room temperature and then the plates were washed 2 times with PBS/0.05% Tween. Secondary antibody was added to each well. After one hour at room temperature with agitation followed by 40 mins at room temperature, the plates were washed 2 times with PBS/0.05% Tween-20. For detection, 150 μL of a 1× Read Buffer (MSD cat # R92TC-1, 4×) were added to each well. The plate was then read using a Sector Imager 2400.

The target of another experiment is T4, FcγR1 (human, UniProt P12314 16-288).
T4 construct: also called human Fc-gamma receptor 1
The description is as above. As to the method: as §3

The next experiment concerns the target T5, FcγR3a (V) (human, UniProt P08637 17-208).
T5 construct: V158 allotype as printed
The description is as above. As to the method:
as §3

The target in experiment [3] is T2, huTGFβ RIIFc (recombinant extracellular …). Kind of experiment: ELISA, huTGFβ RIIFc coated, antibody titrated; Antibody A; binding ELISA. How it is done:
(§4) For binding assays, huTGFβ RIIFc was coated on microplates. […] After washing, plates were incubated with HRP-labelled goat anti-rat Fab detection antibody and subsequently TMB peroxidase substrate was added to the wells for color development. The values of absorbance at 405 nm were read on a microtiter plate reader (Molecular Devices Corp). EC₅₀ of the antibodies was analyzed using GraphPad Prism.

For experiment [4], the target named is T1, TGFβ RII AP. Kind of experiment: ligand blocking ELISA, TGFβ RII AP binding to coated TGFβ ligand 3 (competitor). As to the method: as §1
Experiment [5] has as its target T1, TGFβ RII AP. As to the kind of experiment: ligand blocking ELISA, TGFβ RII AP binding to coated TGFβ ligand 2 (competitor). As to the method:
as §1

Experiment [6] has as its target T2, huTGFβ RIIFc (recombinant extracellular …). Kind of experiment: SPR (Biacore), TGFβ RII-Fc extracellular domain immobilized at low density; LY3022859; KD. As to the method: as §2
Experiment [7] shares this target. As to the kind of experiment: ELISA, huTGFβ RIIFc coated, antibody titrated; LY3022859; binding ELISA. As to the method:
as §4

Data on 2 molecules can be found in US20180105597A1 (Eli Lilly, published 2018).

human C1q, sequence (P02745 23-245 limits assumed, chain 1 of 3): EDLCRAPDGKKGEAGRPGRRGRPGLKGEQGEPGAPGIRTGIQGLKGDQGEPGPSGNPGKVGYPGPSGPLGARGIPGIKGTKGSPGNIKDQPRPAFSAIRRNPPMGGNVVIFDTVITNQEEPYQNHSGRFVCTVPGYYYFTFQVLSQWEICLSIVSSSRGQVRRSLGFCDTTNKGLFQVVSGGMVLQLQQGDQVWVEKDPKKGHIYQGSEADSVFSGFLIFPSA
human C1q, sequence (P02746 28-253 limits assumed, chain 2 of 3): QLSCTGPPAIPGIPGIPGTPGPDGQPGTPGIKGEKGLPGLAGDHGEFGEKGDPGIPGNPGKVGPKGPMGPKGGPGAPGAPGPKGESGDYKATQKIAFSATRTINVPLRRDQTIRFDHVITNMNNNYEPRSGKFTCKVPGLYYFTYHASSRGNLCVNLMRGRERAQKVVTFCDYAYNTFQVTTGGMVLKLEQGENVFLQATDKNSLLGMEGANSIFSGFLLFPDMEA
human C1q, sequence (P02747 29-245 limits assumed, chain 3 of 3): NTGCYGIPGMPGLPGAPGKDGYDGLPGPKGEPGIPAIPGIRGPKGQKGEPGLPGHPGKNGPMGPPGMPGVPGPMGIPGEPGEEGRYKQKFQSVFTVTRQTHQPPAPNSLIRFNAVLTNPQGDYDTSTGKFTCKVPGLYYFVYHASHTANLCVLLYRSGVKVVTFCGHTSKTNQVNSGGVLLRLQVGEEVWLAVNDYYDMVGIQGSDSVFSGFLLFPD
T2 sequence (P37173 23-166): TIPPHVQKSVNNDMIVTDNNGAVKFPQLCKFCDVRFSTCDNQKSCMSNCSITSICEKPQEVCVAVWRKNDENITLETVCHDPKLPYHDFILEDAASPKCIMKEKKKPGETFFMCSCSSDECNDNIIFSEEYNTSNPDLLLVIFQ
T1 sequence (P37173 23-166): as above
T5 sequence (P08637 17-208 F176V): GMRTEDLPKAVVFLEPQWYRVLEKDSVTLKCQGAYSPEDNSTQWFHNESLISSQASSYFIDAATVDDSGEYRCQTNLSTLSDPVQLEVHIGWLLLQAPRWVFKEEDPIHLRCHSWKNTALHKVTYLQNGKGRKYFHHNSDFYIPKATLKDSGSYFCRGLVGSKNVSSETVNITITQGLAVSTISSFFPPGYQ
T4 sequence (P12314 16-288): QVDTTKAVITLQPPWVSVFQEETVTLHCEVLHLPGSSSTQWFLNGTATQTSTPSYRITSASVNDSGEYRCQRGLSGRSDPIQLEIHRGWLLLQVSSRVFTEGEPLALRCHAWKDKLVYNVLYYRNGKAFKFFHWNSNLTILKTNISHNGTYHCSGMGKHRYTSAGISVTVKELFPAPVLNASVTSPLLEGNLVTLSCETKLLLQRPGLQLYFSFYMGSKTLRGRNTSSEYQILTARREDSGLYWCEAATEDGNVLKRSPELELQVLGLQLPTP

B1: Antibody A (antibody, human IgG1, kappa)
heavy: QLQVQESGPGLVKPSETLSLTCTVSGGSISNSYFSWGWIRQPPGKGLEWIGSFYYGEKTYYNPSLKSRATISIDTSKSQFSLKLSSVTAADTAVYYCPRGPTMIRGVIDSWGQGTLVTVSSASTKGPSVFPLAPSSKSTSGGTAALGCLVKDYFPEPVTVSWNSGALTSGVHTFPAVLQSSGLYSLSSVVTVPSSSLGTQTYICNVNHKPSNTKVDKRVEPKSCDKTHTCPPCPAPEAEGAPSVFLFPPKPKDTLMISRTPEVTCVVVDVSHEDPEVKFNWYVDGVEVHNAKTKPREEQYNSTYRVVSVLTVLHQDWLNGKEYKCKVSNKALPSSIEKTISKAKGQPREPQVYTLPPSREEMTKNQVSLTCLVKGFYPSDIAVEWESNGQPENNYKTTPPVLDSDGSFFLYSKLTVDKSRWQQGNVFSCSVMHEALHNHYTQKSLSLSPGK
light: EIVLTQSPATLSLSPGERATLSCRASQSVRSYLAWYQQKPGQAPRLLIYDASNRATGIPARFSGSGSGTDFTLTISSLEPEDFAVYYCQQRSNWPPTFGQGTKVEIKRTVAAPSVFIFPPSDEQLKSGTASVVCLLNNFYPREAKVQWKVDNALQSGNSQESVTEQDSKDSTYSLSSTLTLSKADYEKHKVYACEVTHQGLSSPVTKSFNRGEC
notes: same variable regions as LY3022859; also called anti-TGFβ RII antibody IgG1 effector null
Regarding B1, the IC50 turned out to be 4.83 nM with TGFβ RII AP [1], 4.36 nM with TGFβ RII AP [4] and 4.4 nM in the experiment with TGFβ RII AP [5]. In experiment [2], the Kd is 0.0222 nM. For the same molecule, the “CDC activity EC50 (nM), BxPC3 target cells, human complement” value with human C1q was above 200 nM. Besides, the “CDC activity EC50 (nM), HEK293 target cells, human complement” value in the experiment with human C1q was above 200 nM. Further, the “CDC activity EC50 (nM), MDA-MB-231 target cells, human complement” value with human C1q was above 200 nM. Also, the “CDC activity EC50 (nM), TGFRβII-HEK target cells, human complement” value with human C1q is above 200 nM. Besides, the EC50 in the experiment with FcγR2a(H) is above 2000 nM; with FcγR1, above 2000 nM; with FcγR3a (V), above 2000 nM; in [3], 0.277 nM.

B2: LY3022859 (antibody, IgG1, V domains shown)
VH: QLQVQESGPGLVKPSETLSLTCTVSGGSISNSYFSWGWIRQPPGKGLEWIGSFYYGEKTYYNPSLKSRATISIDTSKSQFSLKLSSVTAADTAVYYCPRGPTMIRGVIDSWGQGTLVTVSS
VL: EIVLTQSPATLSLSPGERATLSCRASQSVRSYLAWYQQKPGQAPRLLIYDASNRATGIPARFSGSGSGTDFTLTISSLEPEDFAVYYCQQRSNWPPTFGQGTKVEIK
notes: the antibody is disclosed in WO 2010/053814; also called TGFβRII mAb LY3022859; anti-TGFβ RII antibody IgG1
Take B2: the IC50 with TGFβ RII AP [1] is 5.48 nM; in the experiment with TGFβ RII AP [4], 4.41 nM; with TGFβ RII AP [5], 4.45 nM. For the same molecule, the Kd in experiment [6] amounted to 0.0106 nM. In experiment [7], the EC50 turned out to be 0.306 nM.
